The record followed here is EP1960427B1.

Experiment [1] concerns the target dimer-IgG (Wright et al.), small immune complex. As to the kind of experiment: flow cytometry, inhibition of dimer-IgG binding to human neutrophils from two individuals. Background: In flow cytometry, cells or beads pass a laser one at a time.
Experiment [2] deals with human IgG monomer (Sandoglobulin, Novartis) (human). As to the kind of experiment: BIAcore equilibrium binding over immobilised IgG. (In general: Surface plasmon resonance follows binding to a sensor surface in real time, without labels.)
Experiment [3] concerns the target heat-aggregated IgG (HAGG). As to the kind of experiment: BIAcore equilibrium binding over immobilised HAGG; two-binding site model, KD1.
The target of experiment [4] is heat-aggregated IgG (HAGG). As to the kind of experiment: BIAcore equilibrium binding over immobilised HAGG; two-binding site model, KD2.
Experiment [5] deals with heat-aggregated IgG (HAGG). Put plainly: flow cytometry, block of HAGG binding to IIA1.6 cells with human FcγRIIb.
The target in experiment [6] is dimer-IgG (Wright et al.), small immune complex. Put plainly: flow cytometry, inhibition of dimer-IgG binding to human neutrophils.
Experiment [7] has as its target human IgG monomer (Sandoglobulin, Novartis) (human). Put plainly: BIAcore equilibrium binding over immobilised human IgG monomer; two-binding site model, KD2.
Experiment [8] shares this target. Put plainly: BIAcore equilibrium binding over immobilised human IgG monomer; two-binding site model, KD1.
For experiment [9], the target named is immune complexes consisting of ovalbumin and anti-ovalbumin antibody (OVA ICs). As to the kind of experiment: cell-based or functional assay.
Experiment [10] concerns the target heat-aggregated IgG (HAGG). Put plainly: cell-based or functional assay.
Experiment [11] deals with heat-aggregated IgG (HAGG). Put plainly: BIAcore equilibrium binding over immobilised HAGG.
The target of experiment [12] is human IgG monomer (Sandoglobulin, Novartis) (human). Put plainly: BIAcore equilibrium binding, receptor injected over immobilised IgG; single-binding site.
Experiment [13] deals with heat-aggregated IgG (HAGG). As to the kind of experiment: BIAcore equilibrium binding, receptor injected over immobilised HAGG; single-binding site.

By IC50 is commonly meant the concentration that gives 50% inhibition. Broadly, the Kd is the equilibrium constant for the complex coming apart. As to “recombinant soluble FcγRIIa head to tail homodimer (rsFcγRIIa dimer), construct of Figure 1 (pBAR397/pBAR427) (from UniProt P12318 34-215; P12318 36-215) (receptor)”, the figures for the IC50 in experiment [1], in [5] and in experiment [6] were 0.9 to 1.1 µg/mL, 0.0039 µg/mL and 1.1 µg/mL, respectively. Further, the fold greater avidity than the monomeric receptor in experiment [2] was 300 fold. Further, the Kd is 2.73 nM in [3], 99 nM in experiment [4], 100 nM in [7] and 3.2 nM in experiment [8]. In [5], the fold more potent than the monomer protein is more than 500 fold. The same substance gave a fold more active than rsFcγRIIa monomer in [6] of 10 fold. Besides, the IC50 of TNF-α release from MC/9 cells induced by OVA ICs in [9] worked out at 2.1 µg/mL. For the same substance, in experiment [9], the fold potency over rsFcγRIIa monomer, TNF-α release from MC/9 cells turned out to be 8 fold. Moreover, the IC50 of HAGG-induced platelet activation (CD41 and CD62P positive platelets) in [10] amounted to 3.9 µg/mL. In experiment [10], this substance gave a fold potency over rsFcγRIIa monomer, HAGG-induced platelet activation of 5 fold. Moreover, in experiment [11], the fold lesser KD1 than the KD of monomeric rsFcγRIIa was found to be 300 fold.
Turning to “recombinant soluble FcγRIIa monomer (rsFcγRIIa monomer), expressed in HEK 293E cells from pBAR426 (from UniProt P12318 34-217) (receptor)”, the results for the dissociation constant Kd in [12] and in experiment [13] were 1700 nM and 1050 nM, respectively. In experiment [6], this substance returned a half-maximal inhibitory concentration (IC50) of 10.5 µg/mL.
In experiment [5], “rsFcγRIIa monomer (R&D Systems, Cat # 1330-CD/CF) (from UniProt P12318 36-218) (receptor)” registered a concentration for half-maximal inhibition (IC50) of 2.08 µg/mL. Also, the IC50 of TNF-α release from MC/9 cells induced by OVA ICs in experiment [9] was 17.7 µg/mL. This substance also yielded an IC50 of HAGG-induced platelet activation (CD41 and CD62P positive platelets) in [10] of 20.9 µg/mL.
